Results as given in US20110086026A1 (ROCHE PALO ALTO, published 2011).
Blank lines part the entries; values can stand above or below the molecule they belong to.

Tests used:
[1] = molecular target: Cynomolgus IL-13Rα1 expressed in transfected Ba/F3 cells (Cynomolgus); assay: FACS, transfected against parental Ba/F3 cells; secondary reagent only
[2] = molecular target: Cynomolgus IL-13Rα1 expressed in transfected Ba/F3 cells (Cynomolgus); assay: FACS on Ba/F3 cells transfected with Cynomolgus IL-13Rα1; secondary reagent only
[3] = molecular target: Cynomolgus IL-13Rα1 expressed in transfected Ba/F3 cells (Cynomolgus); assay: FACS, transfected against parental Ba/F3 cells; negative control
[4] = molecular target: Cynomolgus IL-13Rα1 expressed in transfected Ba/F3 cells (Cynomolgus); assay: FACS on Ba/F3 cells transfected with Cynomolgus IL-13Rα1; negative control
[5] = molecular target: Cynomolgus IL-13Rα1 expressed in transfected Ba/F3 cells (Cynomolgus); assay: FACS, transfected against parental Ba/F3 cells, 10 µg/ml
[6] = molecular target: Chimeric protein murine IL-13Rα1:hFc (R&D Systems, UK) (mouse) (UniProt O09030); assay: ELISA, immobilized murine IL-13Rα1:hFc, detection with anti-goat IgG-POD, OD 405nm
Chimeric protein murine IL-13Rα1:hFc (R&D Systems, UK) (mouse), sequence (O09030 26-340, change not shown): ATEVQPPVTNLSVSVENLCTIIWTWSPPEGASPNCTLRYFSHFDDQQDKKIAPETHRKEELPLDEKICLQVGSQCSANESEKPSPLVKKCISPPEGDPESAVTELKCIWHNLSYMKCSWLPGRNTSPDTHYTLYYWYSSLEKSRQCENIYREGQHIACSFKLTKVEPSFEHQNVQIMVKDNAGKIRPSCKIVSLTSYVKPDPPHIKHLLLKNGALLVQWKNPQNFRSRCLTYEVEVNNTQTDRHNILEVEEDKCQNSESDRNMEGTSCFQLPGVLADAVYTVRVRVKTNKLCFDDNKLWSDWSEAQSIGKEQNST

[7] = molecular target: T1, human IL-13Rα1 (human, UniProt P78552 22-427); assay: displacement of 125I-IL-13 on CHO cells expressing human IL-13Rα1 and IL-4Rα
T1 sequence (looked up): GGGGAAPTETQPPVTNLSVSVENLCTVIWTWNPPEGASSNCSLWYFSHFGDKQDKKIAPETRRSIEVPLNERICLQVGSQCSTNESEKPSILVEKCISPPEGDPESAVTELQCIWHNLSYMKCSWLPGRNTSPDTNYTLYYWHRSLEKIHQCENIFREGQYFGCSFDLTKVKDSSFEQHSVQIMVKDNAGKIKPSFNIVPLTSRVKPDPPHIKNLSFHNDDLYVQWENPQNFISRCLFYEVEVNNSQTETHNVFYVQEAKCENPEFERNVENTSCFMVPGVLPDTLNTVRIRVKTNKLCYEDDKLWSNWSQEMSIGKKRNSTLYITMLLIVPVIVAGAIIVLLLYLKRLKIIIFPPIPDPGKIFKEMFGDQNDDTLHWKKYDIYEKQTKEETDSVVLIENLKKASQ

[8] = molecular target: extracellular domain of IL-13Rα1 (R&D Systems, UK) (human) (UniProt P78552); assay: ELISA, immobilized extracellular domain of human IL-13Rα1, detection with anti-goat IgG-POD, OD 405nm-492nm
[9] = molecular target: Cynomolgus IL-13Rα1 expressed in transfected Ba/F3 cells (Cynomolgus); assay: FACS on Ba/F3 cells transfected with Cynomolgus IL-13Rα1, 10 µg/ml
[10] = molecular target: T1, human IL-13Rα1; assay: cell-based or functional assay
[11] = molecular target: T2, extracellular domain of hIL-13Rα1 cleaved from hIL-13Rα1:hFc chimeric protein (human, UniProt P78552 22-343); assay: SPR Biacore 3000, CM5 chip, HuMab captured by anti-hFcγ, cleaved hIL-13Rα1 as analyte, bivalent analyte model (ka1)
T2 construct: extracellular domain; also called Cleaved hIL-13Rα1 molecules (MW 40 kDa)
T2 sequence (looked up): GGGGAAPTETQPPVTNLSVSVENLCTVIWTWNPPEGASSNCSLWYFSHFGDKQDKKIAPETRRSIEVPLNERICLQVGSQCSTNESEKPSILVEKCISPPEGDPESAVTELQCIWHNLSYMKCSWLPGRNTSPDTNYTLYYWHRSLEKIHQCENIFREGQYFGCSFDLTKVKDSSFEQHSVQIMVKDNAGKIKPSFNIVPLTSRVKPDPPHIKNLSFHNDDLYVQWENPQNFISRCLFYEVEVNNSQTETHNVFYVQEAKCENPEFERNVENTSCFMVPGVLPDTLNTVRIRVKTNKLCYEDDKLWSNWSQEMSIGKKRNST
Experimental: (§1) In these experiments, the affinity of the original IgG1 derived from hybridoma was compared with the affinities of the recombinant variant IgG1-Ala-Ala. For interaction analysis, a Biacore 3000 instrument was used. Running and reaction buffer was HBS-P (10 mM HEPES, 150 mM NaCl, 0.005% polysurfactant P, pH 7.4) at 25° C. Capturing antibody molecules (anti-hFcγ) were amine-coupled at a concentration of 20 μg/ml at a flow rate of 5 μl/min for 20 minutes. HuMabs were injected at concentrations of 10 μg/ml at a flow rate of 10 μl/min for 1 minute. Cleaved hIL-13 Rα1 molelcules (analyte) were injected for five minutes at eight concentrations between 1.56 nM and 200 nM and washed with HBS-P for five minutes. Regeneration of the surface was accomplished by two injections of 100 mM HCl for 1 min each. The chip, assay format and sequence of injections and kinetic data correspond to the description in Table 4. Kinetic data were calculated by fitting kinetic data to a bivalent analyte binding model.

[12] = molecular target: T2, extracellular domain of hIL-13Rα1 …; assay: SPR Biacore 3000, C1 chip, HuMab captured by anti-hFcγ, cleaved hIL-13Rα1 as analyte, 1:1 Langmuir model
Experimental: For interaction analysis, a Biacore 3000 instrument was used. Running and reaction buffer was HBS-P (10 mM HEPES, 150 mM NaCl, 0.005% polysurfactant P, pH 7.4) at 25° C. Capturing antibody molecules (anti-hFcγ) were amine-coupled at a concentration of 100 μg/ml at a flow rate of 5 μl/min for 20 minutes. HuMabs were injected at concentrations of 10 μg/ml at a flow rate of 10 μl/min for 30 seconds. Cleaved hIL-13Rα1 molecules (MW 40 kDa) were injected for 200 seconds at seven concentrations between 1.56 nM and 100 nM and washed with HBS-P for five minutes. Regeneration of the surface was accomplished by two injections of 100 mM HCl for 1 min each at a flow rate of […]. The chip, assay format and sequence of injections and kinetic data correspond to the description in the following Table 3. Kinetic data were calculated by fitting kinetic data to a 1:1 Langmuir binding model.

[13] = molecular target: T2, extracellular domain of hIL-13Rα1 …; assay: SPR Biacore 3000, CM5 chip, HuMab captured by anti-hFcγ, cleaved hIL-13Rα1 as analyte, bivalent analyte model (kd1)
Experimental: as §1

[14] = molecular target: T2, extracellular domain of hIL-13Rα1 …; assay: SPR Biacore 3000, CM5 chip, HuMab captured by anti-hFcγ, cleaved hIL-13Rα1 as analyte, bivalent analyte model
Experimental: as §1

Molecule: Normal goat IgG (antibody)
Fold Increase in MFI in the presence of Cyno IL-13Rα1 [3]: 2.4
MFI Ba/F3 Cyno IL-13Rα1 [4]: 5.7 MFI

B1: LC5002-005, mutant L234A; L235A (antibody, V domains shown)
VH: EVQVLDSGGGLVQPGGSLRLSCTASGFTFRLYTMSWVRQTPGRGLEWVSGISGSGLSTYFADSVKGRFTISRDNSKNTVYLQMNSLRAEDTAVYYCAKEGDWIYFDSWGQGTLVIVSS
VL: DIQMTQSPSSLSASVGDRVTITCRASQGISSWLAWYQQKPEKAPKSLIYAASSLQSGVPSRFSGSGSGTDFTLTISSLQPEDFATYYCQQYNSHPPTFGQGTKLEIKR
notes: Recombinant IgG1 variant; also called IgG1 ala-ala LC5002-005; recombinant variant IgG1-Ala-Ala
kon [11]: 153000 M⁻¹ s⁻¹
Kd [12]: 0.21 nM
koff [12]: 0.00029 s⁻¹
kon [12]: 1.4e+06 M⁻¹ s⁻¹
koff [13]: 0.00042 s⁻¹
Kd [14]: 2.8 nM

Now from value to molecule:

Fold Increase in MFI in the presence of Cyno IL-13Rα1 [1]: 2.2
MFI Ba/F3 Cyno IL-13Rα1 [2]: 5.5 MFI
Molecule: Anti human IgG-FITC only (antibody)

Fold Increase in MFI in the presence of Cyno IL-13Rα1 [3]: 6.7
MFI Ba/F3 Cyno IL-13Rα1 [4]: 10.2 MFI
Molecule: Normal human IgG1 (Nordic) (antibody)

Fold Increase in MFI in the presence of Cyno IL-13Rα1 [5]: 18
EC50 (read off the curve) [6]: 0.2 nM
IC50 [7]: 84.8 nM
EC50 (read off the curve) [8]: 0.6 nM
MFI Ba/F3 Cyno IL-13Rα1 [9]: 21.2 MFI
IC50, IL-13-induced Stat-6 phosphorylation in BSMC [10]: 18.6 nM
IC50, TF-1 proliferation in response to IL-13 [10]: 13.5 nM
IC50 for IL-4-induced TF-1 proliferation [10]: 74.4 nM
IC50 for inhibiting of CD23 upregulation on B-lymphocytes (IL-13 induced) [10]: 13.6 nM
IC50 for inhibition of IL-13 induced CD23 upregulation on human monocytes [10]: 62.9 nM
average IC50, eotaxin release of HFL-1 cells in response to IL-13 [10]: 11.5 nM
Molecule: polyclonal goat anti-hIL-13Rα1 antibody AF152 (R&D Systems)
